US20180155451A1 (published 2018)

T1: FcγRIIb extracellular domain with C-terminal His tag (human, UniProt P31994 43-217)
T1 construct: extracellular domain; soluble receptor expressed in FreeStyle293 cells, used as analyte in Biacore; also called FcgRIIb; 2b; not shown: His tag attached to the C terminus
T1 sequence (looked up): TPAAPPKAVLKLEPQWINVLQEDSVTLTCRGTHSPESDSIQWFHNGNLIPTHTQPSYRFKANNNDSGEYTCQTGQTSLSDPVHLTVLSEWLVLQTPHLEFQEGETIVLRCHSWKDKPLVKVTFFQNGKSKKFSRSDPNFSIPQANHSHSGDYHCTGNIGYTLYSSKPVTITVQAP

B1: GpH7-A5/GpH7-B3 variant A327_03V/GpL16-k0 (antibody, human IgG1, kappa)
heavy 1: not shown
heavy 2: not shown
light: DIVMTQSPLSLPVTPGEPASISCQASESLVHSNRNTYLHWYLQKPGQSPQLLIYKVSNRFSGVPDRFSGSGSGTDFTLKISRVEAEDVGVYYCSQNTHVPPTFGQGTKVEIERTVAAPSVFIFPPSDEQLKSGTASVVCLLNNFYPREAKVQWKVDNALQSGNSQESVTEQDSKDSTYSLSSTLTLSKADYEKHKVYACEVTHQGLSSPVTKSFNRGEC
notes: heterodimerized anti-glypican-3 IgG1; alteration in the GpH7-B3 chain only; also called He Ab
B2: GpH7-A5/GpH7-B3 variant E269_19Q/GpL16-k0 (antibody, human IgG1, kappa)
heavy 1: not shown
heavy 2: not shown
light: B1 light
notes: as for B1
B3: GpH7-A5/GpH7-B3 variant A330_06M/GpL16-k0 (antibody, human IgG1, kappa)
heavy 1: not shown
heavy 2: not shown
light: B1 light
notes: as for B1
B4: GpH7-A5/GpH7-B3 variant A330_04F/GpL16-k0 (antibody, human IgG1, kappa)
heavy 1: not shown
heavy 2: not shown
light: B1 light
notes: as for B1
B5: GpH7-A5/GpH7-B3 variant D270_03V/GpL16-k0 (antibody, human IgG1, kappa)
heavy 1: not shown
heavy 2: not shown
light: B1 light
notes: as for B1
B6: GpH7-A5/GpH7-B3 variant E333_02A/GpL16-k0 (antibody, human IgG1, kappa)
heavy 1: not shown
heavy 2: not shown
light: B1 light
notes: as for B1
B7: GpH7-A5/GpH7-B3 variant A330_11K/GpL16-k0 (antibody, human IgG1, kappa)
heavy 1: not shown
heavy 2: not shown
light: B1 light
notes: as for B1
B8: GpH7-A5/GpH7-B3 variant E333_06M/GpL16-k0 (antibody, human IgG1, kappa)
heavy 1: not shown
heavy 2: not shown
light: B1 light
notes: as for B1
B9: GpH7-A5/GpH7-B3 variant A330_14T/GpL16-k0 (antibody, human IgG1, kappa)
heavy 1: not shown
heavy 2: not shown
light: B1 light
notes: as for B1
B10: GpH7-A5/GpH7-B3 variant D270_06M/GpL16-k0 (antibody, human IgG1, kappa)
heavy 1: not shown
heavy 2: not shown
light: B1 light
notes: as for B1
B11: GpH7-A5/GpH7-B3 variant A330_09D/GpL16-k0 (antibody, human IgG1, kappa)
heavy 1: not shown
heavy 2: not shown
light: B1 light
notes: as for B1
B12: GpH7-A5/GpH7-B3 variant D270_14T/GpL16-k0 (antibody, human IgG1, kappa)
heavy 1: not shown
heavy 2: not shown
light: B1 light
notes: as for B1
B13: GpH7-A5/GpH7-B3 variant D270_07I/GpL16-k0 (antibody, human IgG1, kappa)
heavy 1: not shown
heavy 2: not shown
light: B1 light
notes: as for B1
B14: GpH7-A5/GpH7-B3 variant D270_18N/GpL16-k0 (antibody, human IgG1, kappa)
heavy 1: not shown
heavy 2: not shown
light: B1 light
notes: as for B1
B15: GpH7-A5/GpH7-B3 variant D270_08L/GpL16-k0 (antibody, human IgG1, kappa)
heavy 1: not shown
heavy 2: not shown
light: B1 light
notes: as for B1
B16: GpH7-A5/GpH7-B3 variant D270_16H/GpL16-k0 (antibody, human IgG1, kappa)
heavy 1: not shown
heavy 2: not shown
light: B1 light
notes: as for B1
B17: GpH7-A5/GpH7-B3 variant D270_12R/GpL16-k0 (antibody, human IgG1, kappa)
heavy 1: not shown
heavy 2: not shown
light: B1 light
notes: as for B1
B18: GpH7-A5/GpH7-B3 variant P271_07I/GpL16-k0 (antibody, human IgG1, kappa)
heavy 1: not shown
heavy 2: not shown
light: B1 light
notes: as for B1
B19: GpH7-A5/GpH7-B3 variant A330_03V/GpL16-k0 (antibody, human IgG1, kappa)
heavy 1: not shown
heavy 2: not shown
light: B1 light
notes: as for B1
B20: GpH7-A5/GpH7-B3 variant A330_16H/GpL16-k0 (antibody, human IgG1, kappa)
heavy 1: not shown
heavy 2: not shown
light: B1 light
notes: as for B1
B21: GpH7-A5/GpH7-B3 variant D270_15Y/GpL16-k0 (antibody, human IgG1, kappa)
heavy 1: not shown
heavy 2: not shown
light: B1 light
notes: as for B1
B22: GpH7-A5/GpH7-B3 variant E333_04F/GpL16-k0 (antibody, human IgG1, kappa)
heavy 1: not shown
heavy 2: not shown
light: B1 light
notes: as for B1
B23: GpH7-A5/GpH7-B3 variant E333_01G/GpL16-k0 (antibody, human IgG1, kappa)
heavy 1: not shown
heavy 2: not shown
light: B1 light
notes: as for B1
B24: GpH7-A5/GpH7-B3 variant A330_19Q/GpL16-k0 (antibody, human IgG1, kappa)
heavy 1: not shown
heavy 2: not shown
light: B1 light
notes: as for B1

What follows are binders tested against T1, FcγRIIb extracellular domain with … (assay: SPR (Biacore), antibody captured on antigen peptide chip, FcγR as analyte; relative binding).

| He/Con_2b | Binder |
| --- | --- |
| 94.7 % of control GpH7-A5/GpH7-B3/GpL16-k0 (=100) | B1 |
| 44.3 % of control GpH7-A5/GpH7-B3/GpL16-k0 (=100) | B2 |
| 80.5 % of control GpH7-A5/GpH7-B3/GpL16-k0 (=100) | B3 |
| 92.8 % of control GpH7-A5/GpH7-B3/GpL16-k0 (=100) | B4 |
| 39.5 % of control GpH7-A5/GpH7-B3/GpL16-k0 (=100) | B5 |
| 83.8 % of control GpH7-A5/GpH7-B3/GpL16-k0 (=100) | B6 |
| 95 % of control GpH7-A5/GpH7-B3/GpL16-k0 (=100) | B7 |
| 85.4 % of control GpH7-A5/GpH7-B3/GpL16-k0 (=100) | B8 |
| 77.9 % of control GpH7-A5/GpH7-B3/GpL16-k0 (=100) | B9 |
| 48.2 % of control GpH7-A5/GpH7-B3/GpL16-k0 (=100) | B10 |
| 55.6 % of control GpH7-A5/GpH7-B3/GpL16-k0 (=100) | B11 |
| 57.8 % of control GpH7-A5/GpH7-B3/GpL16-k0 (=100) | B12 |
| 41.5 % of control GpH7-A5/GpH7-B3/GpL16-k0 (=100) | B13 |
| 40.3 % of control GpH7-A5/GpH7-B3/GpL16-k0 (=100) | B14 |
| 53.6 % of control GpH7-A5/GpH7-B3/GpL16-k0 (=100) | B15 |
| 47.2 % of control GpH7-A5/GpH7-B3/GpL16-k0 (=100) | B16 |
| 18.3 % of control GpH7-A5/GpH7-B3/GpL16-k0 (=100) | B17 |
| 76.8 % of control GpH7-A5/GpH7-B3/GpL16-k0 (=100) | B18 |
| 52.4 % of control GpH7-A5/GpH7-B3/GpL16-k0 (=100) | B19 |
| 87.6 % of control GpH7-A5/GpH7-B3/GpL16-k0 (=100) | B20 |
| 44.9 % of control GpH7-A5/GpH7-B3/GpL16-k0 (=100) | B21 |
| 94.6 % of control GpH7-A5/GpH7-B3/GpL16-k0 (=100) | B22 |
| 81.4 % of control GpH7-A5/GpH7-B3/GpL16-k0 (=100) | B23 |
| 90.8 % of control GpH7-A5/GpH7-B3/GpL16-k0 (=100) | B24 |

What follows are binders tested against T2, FcγRIa extracellular domain with C-terminal His tag (human, UniProt P12314 16-292) in the same assay as above.
T2 construct: extracellular domain; soluble receptor expressed in FreeStyle293 cells, used as analyte in Biacore; also called FcgRI; 1a; not shown: His tag attached to the C terminus
T2 sequence (P12314 16-292): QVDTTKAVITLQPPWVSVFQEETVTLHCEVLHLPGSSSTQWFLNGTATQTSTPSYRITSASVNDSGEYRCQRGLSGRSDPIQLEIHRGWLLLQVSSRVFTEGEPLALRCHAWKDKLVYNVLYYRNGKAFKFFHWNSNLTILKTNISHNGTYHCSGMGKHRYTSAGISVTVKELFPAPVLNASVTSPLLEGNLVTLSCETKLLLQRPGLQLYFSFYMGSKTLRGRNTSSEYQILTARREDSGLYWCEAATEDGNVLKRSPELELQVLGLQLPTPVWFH

| He/Con_1a | Binder |
| --- | --- |
| 103 % of control GpH7-A5/GpH7-B3/GpL16-k0 (=100) | B1 |
| 105 % of control GpH7-A5/GpH7-B3/GpL16-k0 (=100) | B2 |
| 105 % of control GpH7-A5/GpH7-B3/GpL16-k0 (=100) | B3 |
| 106 % of control GpH7-A5/GpH7-B3/GpL16-k0 (=100) | B4 |
| 77.9 % of control GpH7-A5/GpH7-B3/GpL16-k0 (=100) | B5 |
| 103 % of control GpH7-A5/GpH7-B3/GpL16-k0 (=100) | B6 |
| 103 % of control GpH7-A5/GpH7-B3/GpL16-k0 (=100) | B7 |
| 102 % of control GpH7-A5/GpH7-B3/GpL16-k0 (=100) | B8 |
| 105 % of control GpH7-A5/GpH7-B3/GpL16-k0 (=100) | B9 |
| 78.8 % of control GpH7-A5/GpH7-B3/GpL16-k0 (=100) | B10 |
| 109 % of control GpH7-A5/GpH7-B3/GpL16-k0 (=100) | B11 |
| 70.6 % of control GpH7-A5/GpH7-B3/GpL16-k0 (=100) | B12 |
| 74.6 % of control GpH7-A5/GpH7-B3/GpL16-k0 (=100) | B13 |
| 67.8 % of control GpH7-A5/GpH7-B3/GpL16-k0 (=100) | B14 |
| 73.5 % of control GpH7-A5/GpH7-B3/GpL16-k0 (=100) | B15 |
| 66 % of control GpH7-A5/GpH7-B3/GpL16-k0 (=100) | B16 |
| 66.3 % of control GpH7-A5/GpH7-B3/GpL16-k0 (=100) | B17 |
| 102 % of control GpH7-A5/GpH7-B3/GpL16-k0 (=100) | B18 |
| 106 % of control GpH7-A5/GpH7-B3/GpL16-k0 (=100) | B19 |
| 106 % of control GpH7-A5/GpH7-B3/GpL16-k0 (=100) | B20 |
| 68.5 % of control GpH7-A5/GpH7-B3/GpL16-k0 (=100) | B21 |
| 102 % of control GpH7-A5/GpH7-B3/GpL16-k0 (=100) | B22 |
| 103 % of control GpH7-A5/GpH7-B3/GpL16-k0 (=100) | B23 |
| 105 % of control GpH7-A5/GpH7-B3/GpL16-k0 (=100) | B24 |
